Experimental data taken from the supplement of paper PMC12455559.

Tests used:
[1] = melting temperature (DSF); higher = more thermostable
How it was run: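 Enzymes made in E. coli C41(DE3) were nickel-bead purified and cut free with SUMO protease before testing. Differential scanning fluorimetry gave each melting temperature. For this, 5 μL 5X Sypro Orange was added to 45 μL enzyme (0 to 0.3 mg/mL) in sealed PCR plates, and a Bio-Rad CFX96 read fluorescence from 25 °C over 250 cycles of 0.3 °C each, ramping at 0.3 °C/s.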

[2] = purified protein yield per well (BCA); higher = higher soluble expression
How it was run: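 Expression was done in E. coli C41(DE3), using 2 mL autoinduction cultures with 100 µg/mL kanamycin incubated at 37 °C for 2 h and at 18 °C for 40 h. Protein was purified on Ni-charged magnetic beads and released by SUMO protease cleavage. Yield of purified protein per well was measured with the Pierce Rapid Gold BCA kit; values below 25 ug (0.1 mg/mL) are below detection.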

[3] = PET hydrolysis, aromatic products released after 48 h (umol product/mg enzyme); higher = more PET depolymerization activity
How it was run: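 Amorphous PET film or crystalline PET powder (3.5 mg) in 450 μL of 50 mM NaCitrate (pH 4.5, 5.5), 50 mM NaPhosphate (pH 6.5, 7.5) or glycine (pH 8.5) received 5 μg (50 μL) of candidate enzyme. That enzyme was purified on nickel beads and freed of its tag by SUMO cleavage. After 48 h at 40 or 60 °C in sealed plates without shaking, absorbance of the supernatant at 260 and 280 nm was read against buffer blanks. PET hydrolysis activity is this aromatic product expressed per mg enzyme.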

[4] = substrate: cryPow, 40 °C, pH 4.5
[5] = substrate: cryPow, 40 °C, pH 5.5
[6] = substrate: cryPow, 40 °C, pH 6.5
[7] = substrate: cryPow, 40 °C, pH 7.5
[8] = substrate: cryPow, 60 °C, pH 4.5
[9] = substrate: cryPow, 60 °C, pH 5.5
[10] = substrate: cryPow, 60 °C, pH 6.5
[11] = substrate: cryPow, 60 °C, pH 7.5

Row | Sequence | melting temperature [1] [C] | purified protein yield per well [2] [µg] | PET hydrolysis [3, 4] | PET hydrolysis [3, 5] | PET hydrolysis [3, 6] | PET hydrolysis [3, 7] | PET hydrolysis [3, 8] | PET hydrolysis [3, 9] | PET hydrolysis [3, 10] | PET hydrolysis [3, 11] | PET hydrolysis ([3]; substrate: cryPow, 40 °C, pH 8.5) | PET hydrolysis ([3]; substrate: aFilm, 40 °C, pH 4.5) | PET hydrolysis ([3]; substrate: aFilm, 40 °C, pH 5.5) | PET hydrolysis ([3]; substrate: aFilm, 40 °C, pH 6.5) | PET hydrolysis ([3]; substrate: aFilm, 40 °C, pH 7.5) | PET hydrolysis ([3]; substrate: aFilm, 60 °C, pH 4.5) | PET hydrolysis ([3]; substrate: aFilm, 60 °C, pH 5.5) | PET hydrolysis ([3]; substrate: aFilm, 60 °C, pH 6.5) | PET hydrolysis ([3]; substrate: aFilm, 60 °C, pH 7.5)
1 | DEIGQAPTASNITGNGSFATTSESISSLVSGFGGGRVYYPTATGRYPVIAISPGFTATWSSLAWIGPRLSSWGFVVVGIETNSIYDQPGSRGNQLLAALNWAVNSSSTAVRSRVDGSRRGVAGHSMGGGGTLEALAADTSGLVKAGVPLAPWNTDKIWSNVSEPVLIVGGQADTIAPVATHSVPFYNTLAGPKTYVELTGASHFFPQTTNATTSRALVSWFKRWLNQDSRFTPYTCGFGGLAVSDFRSNAC [ESM147] | 67.9 | 75.4 | 11 | 29 | 31 | 46 | < 3 | 22 | 42 | 81 |  |  |  |  |  |  |  |  | 
2 | DEIGQAPTSSNITGNGSFSVATYNISSLVSGFGGGVAYYPTTSGRYPVIAVSPGFTARWSSISWIGPRLASWGFVVVGIETNSIYDQPGSRGSQLLAALNWAVNSAPSSVRDRVDGSRRGVAGHSMGGGGTLEALAADTTGLVKAGVPIAPWNTDTTWGGLNEAVQIVGGESDTIAPVSSHSIPFYSTLGGPKSYVELNGASHFFPQTSNSTLSRALVSWFKRYLNNDARFTPFTCGYSGLSISDFRSNNC [ESM144] | 50.2 | 89.1 | < 3 | < 3 | < 3 | 6 | < 3 | < 3 | < 3 | < 3 |  |  |  |  |  |  |  |  | 
3 | DEIGQAPTSSNITGNGSFSVSTYNISSLVTGFGGGVAYYPSTAGRYPVVAVSPGFTARWSSISWIGPRLASWGFVVVGIETNSVYDQPASRGSQLLAALNWAVNSAPSAITSRADGSRRGVAGHSMGGGGTLEALAADTTGNVKAGVPLAPWNSDKTWNNVNEPVQIIGGESDTVAGVSSHSIPFYNSLGGSKSYVELNGASHFFPQTTNATTSRALVSWFKRWLNQDARFTPFTCGYGGTAVSDFRTNAC [ESM177] | 54.4 | 71.4 | < 3 | < 3 | 13 | 42 | < 3 | < 3 | < 3 | 7 |  |  |  |  |  |  |  |  | 
4 | DPPTHAKGVKPGPSELAAPSASDLAADGPHAVTTTAISGSVTPGFGAATIYAPASGSGYGGVAISPGYMSTQSAVSWLGPRLASHGFVVITFDTTTIWDNPDSRGVQLLAALDYLTGSSPARGQVDASRLAVMGHSMGGGGSLAAAKSRPSIDAAIPLTPWHTDKTWPEVSTPTLIVGAENDGIAPVASHAEPFYESLATSTDRAYLELNAATHSAPNSENAQISTYSLAWLKRFVDGDTSVDPILCPGPAASSTVEEYRSSCPF [DP019] | 42.7 | 28 |  | < 3 | < 3 | < 3 |  |  |  |  | < 3 |  |  |  |  |  |  |  | 
5 | DQGPPPTIASLSVDGAYAVMTYTDIPDVPEFGDATVYYPVDTAMPIGGVAISPGWTELQRHIEWWGPRLASHGYAVLILDTNDAMADQPEQRAEALIAAVRILRGENDRAGSPLSGRIDTEKMAIMGHSMGGGGVLIAANNYPAEIQAAIPFTPWQPAGDFSQVVAPTLVMAGSADRVASVSDHAWPHYQSIPESTIKVFLEIDGGSHFIADTSRGEDLGTIGRYGIAWLKLYLDGDERYRGFIYGDEAASDSEKFSRYVTSP [TEP021] | 30.7 | 76.5 | < 3 | < 3 | < 3 | < 3 | < 3 | < 3 | < 3 | < 3 |  |  |  |  |  |  |  |  | 
6 | DQIGQAPTASNITGNGSFATTSASISSTVSGFGGGRVYYPTAAGTYPVIAISPGFTATWSSLAWIGPRLSSWGFVVVGIETNSIYDQPASRGNQLLAALNWAVNSSPTAVRSHVDGSRRGVAGHSMGGGGTLEALAADTTGLVKAGVPLAPWNTDKTWNNVSEPVLIVGGQADTVAPVASHSIPFYNTLAGPKTYVELTGQSHFFPQTTNATASRALVAWFKRWVSQDSRFTPFTCGFSGVAVSDFRSNAC [ESM082] | 67.6 | 151 | 9 | 22 | 29 | 36 | < 3 | 23 | 46 | 65 |  |  |  |  |  |  |  |  | 
7 | DQVGQAPTADNITGNGSFATTSAAITNQTGFGGGTVYYPTADGTYPVVAIVPGFAATWSQISWLGPRVASWGFVVVGVDTTSVFDSPQQRGDEFLAALNWAANSAPASTRGKVDGTRRGVAGWSMGGGGTLEAMAKDTTLKAGVPLAPWDTTQDWSKIGKPVFIVGAQNDLIAPPASHAIPFYNSLAGPKSYLELAGADHFFPISANPTVSRAVVSWFKRFVSADDRFAPFTCGFAGAAVSAFRTTAC [TEP103] | 71.8 | 45.9 | 19 | 35 | 71 | 43 |  |  |  |  |  |  |  |  |  |  |  |  | 
8 | DSPYQRGPDPTLASVAATRGPFATTQATVPAGNGFNGGFVYYPTDTSLGTWGAVAIVPGYSALFANEEAWMGPWLASFGFVVLGIETNSRTDGADARATQLLAGLDYLTRTSPVRSRVDANRLGVMGHSAGGAGTLLAALRRPSLKTAVGLAPGTPGNNLNMSTTQVPTLLLSGQNDGTVTPSYVQGIYNTLPATVEHAWAELAGNDHLSFTRSNPTEMRLLIPWLKIFLDSDTRYTQFLCPLADSTGVSRYSSTCPLVPSGGPTPPPTTTPPPPTTTPPPTSTPPPPTTTPPPTTPPAGTACTATYRTVNSWSGGFQAEVTVTAGSTATDGWTVRWNLGAGQSVSQVWNGTLSTSGTTATVRNAAYNGTLAPGTSTTFGFLGSGTPSSPSPTCTSP [ESM011] | 62.2 | 240 | < 3 | < 3 | < 3 | < 3 | < 3 | < 3 | < 3 | < 3 |  | < 3 | < 3 | < 3 | < 3 | < 3 | < 3 | < 3 | < 3
